The source of these data is publication PMC10884834, “SPR spectroscopic analysis of myosin binding to wild type and mutant UNC45B” (microPublication Biology, 2024).

The Kd is a measure of binding affinity in units of concentration.

For assay [1], the target named is myosin II, full-length, purified from rabbit skeletal muscle (rabbit, UniProt Q28641 1-1938). Nature of the assay: SPR; BIAcore X100; His-tagged UNC45B constructs (0.2 uM) captured on Ni2+-NTA sensor chip; myosin analyte 1 up to 3500 nM at 5 ul/min; HBS-P (10 mM HEPES, 150 mM NaCl, 0.005% Tween20, pH 7.4) plus 50 uM EDTA; 20 C; steady-state signal fitted to a 1:1 one-site saturation model; n=3. The settings on record: both partners purified. In general terms: In SPR one partner is held on a chip, and binding of the other changes the refractive index at the surface.

Assay [2] concerns the target myosin II, full-length, purified from rabbit skeletal muscle (rabbit, UniProt Q28641 1-1938, Deletion taken as residues 600-630, as the methods print for the mutant; the description gives the loop as N601-D630, so residue 600 is uncertain. Full-length canonical isoform (931 aa) assumed. His-t). The assay is described as above. The settings on record: both partners purified.

B1: UNC45B (wild type), Homo sapiens (natural protein, human, UniProt Q8IWX7 1-931, looked up)
chain: MAEVEAVQLKEEGNRHFQLQDYKAATNSYSQALKLTKDKALLATLYRNRAACGLKTESYVQAASDASRAIDINSSDIKALYRRCQALEHLGKLDQAFKDVQRCATLEPRNQNFQEMLRRLNTSIQEKLRVQFSTDSRVQKMFEILLDENSEADKREKAANNLIVLGREEAGAEKIFQNNGVALLLQLLDTKKPELVLAAVRTLSGMCSGHQARATVILHAVRIDRICSLMAVENEEMSLAVCNLLQAIIDSLSGEDKREHRGKEEALVLDTKKDLKQITSHLLDMLVSKKVSGQGRDQALNLLNKNVPRKDLAIHDNSRTIYVVDNGLRKILKVVGQVPDLPSCLPLTDNTRMLASILINKLYDDLRCDPERDHFRKICEEYITGKFDPQDMDKNLNAIQTVSGILQGPFDLGNQLLGLKGVMEMMVALCGSERETDQLVAVEALIHASTKLSRATFIITNGVSLLKQIYKTTKNEKIKIRTLVGLCKLGSAGGTDYGLRQFAEGSTEKLAKQCRKWLCNMSIDTRTRRWAVEGLAYLTLDADVKDDFVQDVPALQAMFELAKAGTSDKTILYSVATTLVNCTNSYDVKEVIPELVQLAKFSKQHVPEEHPKDKKDFIDMRVKRLLKAGVISALACMVKADSAILTDQTKELLARVFLALCDNPKDRGTIVAQGGGKALIPLALEGTDVGKVKAAHALAKIAAVSNPDIAFPGERVYEVVRPLVRLLDTQRDGLQNYEALLGLTNLSGRSDKLRQKIFKERALPDIENYMFENHDQLRQAATECMCNMVLHKEVQERFLADGNDRLKLVVLLCGEDDDKVQNAAAGALAMLTAAHKKLCLKMTQVTTQWLEILQRLCLHDQLSVQHRGLVIAYNLLAADAELAKKLVESELLEILTVVGKQEPDEKKAEVVQTARECLIKCMDYGFIKPVS
notes: UNC45B, Homo sapiens, codon optimized for E. coli, synthesized (GenScript), in a pET-28 vector; also called wild-type UNC-45B; source: E. coli BL21 DE3, purified (HisPur Ni-NTA resin)
Take B1: the Kd in assay [1] worked out at 330 nM.

B2: UNC45B loop deletion mutant (residues 600-630), Homo sapiens (natural protein)
chain: MAEVEAVQLKEEGNRHFQLQDYKAATNSYSQALKLTKDKALLATLYRNRAACGLKTESYVQAASDASRAIDINSSDIKALYRRCQALEHLGKLDQAFKDVQRCATLEPRNQNFQEMLRRLNTSIQEKLRVQFSTDSRVQKMFEILLDENSEADKREKAANNLIVLGREEAGAEKIFQNNGVALLLQLLDTKKPELVLAAVRTLSGMCSGHQARATVILHAVRIDRICSLMAVENEEMSLAVCNLLQAIIDSLSGEDKREHRGKEEALVLDTKKDLKQITSHLLDMLVSKKVSGQGRDQALNLLNKNVPRKDLAIHDNSRTIYVVDNGLRKILKVVGQVPDLPSCLPLTDNTRMLASILINKLYDDLRCDPERDHFRKICEEYITGKFDPQDMDKNLNAIQTVSGILQGPFDLGNQLLGLKGVMEMMVALCGSERETDQLVAVEALIHASTKLSRATFIITNGVSLLKQIYKTTKNEKIKIRTLVGLCKLGSAGGTDYGLRQFAEGSTEKLAKQCRKWLCNMSIDTRTRRWAVEGLAYLTLDADVKDDFVQDVPALQAMFELAKAGTSDKTILYSVATTLVNCTNSYDVKEVIPELVQLAISALACMVKADSAILTDQTKELLARVFLALCDNPKDRGTIVAQGGGKALIPLALEGTDVGKVKAAHALAKIAAVSNPDIAFPGERVYEVVRPLVRLLDTQRDGLQNYEALLGLTNLSGRSDKLRQKIFKERALPDIENYMFENHDQLRQAATECMCNMVLHKEVQERFLADGNDRLKLVVLLCGEDDDKVQNAAAGALAMLTAAHKKLCLKMTQVTTQWLEILQRLCLHDQLSVQHRGLVIAYNLLAADAELAKKLVESELLEILTVVGKQEPDEKKAEVVQTARECLIKCMDYGFIKPVS
For the molecule B2, the Kd in assay [2] worked out at 2630 nM.
